Assay results as given in article doi:10.1101/2024.09.19.614007 (bioRxiv, 2024).

Target: the molecule itself
Assay: cryo-EM structure

B1: Escherichia coli glutamate kinase (enzyme, UniProt P0A7B5 1-367, looked up)
chain: MSDSQTLVVKLGTSVLTGGSRRLNRAHIVELVRQCAQLHAAGHRIVIVTSGAIAAGREHLGYPELPATIASKQLLAAVGQSRLIQLWEQLFSIYGIHVGQMLLTRADMEDRERFLNARDTLRALLDNNIVPVINENDAVATAEIKVGDNDNLSALAAILAGADKLLLLTDQKGLYTADPRSNPQAELIKDVYGIDDALRAIAGDSVSGLGTGGMSTKLQAADVACRAGIDTIIAAGSKPGVIGDVMEGISVGTLFHAQATPLENRKRWIFGAPPAGEITVDEGATAAILERGSSLLPKGIKSVTGNFSRGEVIRICNLEGRDIAHGVSRYNSDALRRIAGHHSQEIDAILGYEYGPVAVHRDDMITR
**Q.** For B1, which “stoichiometry N” value is on record?
**A.** 4
